Data from patent US20180319847A1.

Legend:
[1] = biological target: EphB2-Fc; experiment: SPR, EphB2-Fc immobilised on CM5, 100 nM analyte
[2] = biological target: EphB2-Fc; experiment: SPR competition on immobilised EphB2-Fc; competitor ephrinB2-Fc (246 nM), 0-1020 nM GST-Azu 88-113
[3] = biological target: EphB2-Fc; experiment: SPR competition on immobilised EphB2-Fc; competitor ephrinB2-Fc (246 nM) preincubated with 0-1020 nM GST-Azu 88-113

Sequence of GST-Azu 88-113 (chain): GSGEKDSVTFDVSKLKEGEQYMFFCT
Sequence of EphB2-Fc (P54763 19-543): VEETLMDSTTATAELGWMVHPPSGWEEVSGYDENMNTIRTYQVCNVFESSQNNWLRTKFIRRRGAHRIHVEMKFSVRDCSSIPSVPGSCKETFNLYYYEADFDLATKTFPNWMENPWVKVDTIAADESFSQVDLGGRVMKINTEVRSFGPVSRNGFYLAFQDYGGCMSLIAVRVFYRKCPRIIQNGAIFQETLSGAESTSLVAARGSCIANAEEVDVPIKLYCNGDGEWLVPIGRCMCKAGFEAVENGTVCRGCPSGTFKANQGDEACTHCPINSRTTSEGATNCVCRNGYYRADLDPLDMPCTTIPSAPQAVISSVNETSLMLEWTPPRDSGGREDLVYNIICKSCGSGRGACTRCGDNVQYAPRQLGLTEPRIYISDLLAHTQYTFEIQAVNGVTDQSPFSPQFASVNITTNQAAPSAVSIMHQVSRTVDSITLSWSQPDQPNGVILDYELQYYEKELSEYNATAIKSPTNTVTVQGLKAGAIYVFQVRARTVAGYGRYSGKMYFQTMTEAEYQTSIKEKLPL
Sequence of GST-Azu 36-89 (B3EWN9 36-89): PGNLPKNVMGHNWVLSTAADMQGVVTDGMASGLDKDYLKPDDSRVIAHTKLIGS

| Substance | Req in RU [1] [RU] | level at which the inhibition levels off [2] [%] | reduction of total protein binding to the surface [3] [%] |
| --- | --- | --- | --- |
| GST-Azu 36-89 (from UniProt B3EWN9 36-89) | 57 |  |  |
| GST-Azu 88-113 |  | 40 to 50 | < 60 |
